Source: patent publication US20190071480A1 (Biogen, published 2019)
Bridges are numbered along the chain shown (N, C = ends).

What was measured:
[1] = molecular target: T1, extracellular domain of activin receptor type IIB (ActRIIBecd), biotinylated (Homo sapiens (Human), UniProt Q13705 27-117, amino-biotinylated with amine-PEG3-Biotin); assay: BIAcore SPR as Example 5 (method not restated); SD ±1.37 nM
T1 construct: immobilised on a streptavidin-coated sensor chip; also called biotinylated ActRIIBecd; extracellular domain of ActRIIB
T1 sequence: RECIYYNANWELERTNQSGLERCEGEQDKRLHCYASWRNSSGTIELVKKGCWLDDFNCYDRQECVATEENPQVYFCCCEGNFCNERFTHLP
Experimental: (§1) Biosensor experiments. In one embodiment, experiments were performed on a BIAcore™ T100/T200 instrument (Pharmacia Biosensor AB) in the multichannel mode (serial flow path involving flow cells 1+2+3+4). Flow rate was 10 μl/min; temperature was 25° C.; and data were recorded at 2.5 points/s. All four segments of a sensor chip CMS were coated with streptavidin (Sigma) to a density of 2000 pg/mm² (2000 resonance units) by the aminocoupling procedure. ActRIIBecd (10 mg) and amine-PEG3-Biotin (10 mg, Pierce, Rockford, Ill.) were dissolved in 200 μl H₂O and 10 mg NaCNBH₃ was added to prepare biotinylated ActRIIBecd. The reaction mixture was heated at 70° C. for 24 h, after that a further 10 mg NaCNBH₃ was added and the reaction was heated at 70° C. for another 24 h. After cooling to room temperature, the mixture was desalted with the spin column (3,000 molecular weight cut off (MWCO)). […] Sensograms were recorded during flow of the analyte (the ActRIIBecd-associated polypeptides (i.e., domains) as previously described) first through flow cell 1 (control) then through flow cell 2 (biotinylated ActRIIBecd). […] The sensograms obtained at 1.11, 3.33, 10, 30, and 90 nM analyte were evaluated for equilibrium binding, association rate, and dissociation rate by using the programs supplied with the instrument (BIA evaluation 2.1; Software Handbook. 1995; Pharmacia Biosensor AB).

[2] = molecular target: T1, extracellular domain of activin …; assay: Mean KD column of Table 5; method not restated (BIAcore as Example 5); species also listed in Table 4
Experimental: Biosensor experiments. In one embodiment, experiments were performed on a BIAcore™ T100/T200 instrument (Pharmacia Biosensor AB) in the multichannel mode (serial flow path involving flow cells 1+2+3+4). Flow rate was 10 μl/min; temperature was 25° C.; and data were recorded at 2.5 points/s. All four segments of a sensor chip CMS were coated with streptavidin (Sigma) to a density of 2000 pg/mm² (2000 resonance units) by the aminocoupling procedure. ActRIIBecd (10 mg) and amine-PEG3-Biotin (10 mg, Pierce, Rockford, Ill.) were dissolved in 200 μl H₂O and 10 mg NaCNBH₃ was added to prepare biotinylated ActRIIBecd. The reaction mixture was heated at 70° C. for 24 h, after that a further 10 mg NaCNBH₃ was added and the reaction was heated at 70° C. for another 24 h. After cooling to room temperature, the mixture was desalted with the spin column (3,000 molecular weight cut off (MWCO)). Biotinylated ActRIIBecd was collected, freeze-dried and used for streptavidin (SA) chip preparation. Amino-biotinylated ActRIIBecd was then immobilized independently on flow cells 2-4 for 10 minutes at a flow rate of 5 μL/min and a concentration of 20 μM in 10 mM sodium acetate, pH 4.0, at a density of 50-250 resonance units (RU). The stored polypeptides were dissolved in glycine buffer (2.5 g of glycine, 0.5 g of sucrose, 370 mg of L-glutamate, 10 mg of sodium chloride, and 10 mg of Tween 80 in 100 mL water, pH 4.5) to prepare 10 mg/mL solution and then diluted with previous glycine buffer to prepare analytes with various concentration. Sensograms were recorded during flow of the analyte (the ActRIIBecd-associated polypeptides (i.e., domains) as previously described) first through flow cell 1 (control) then through flow cell 2 (biotinylated ActRIIBecd). The sensogram obtained for flow cell 1 was subtracted from the sensogram obtained for flow cell 2. The sensograms obtained at 1.11, 3.33, 10, 30, and 90 nM analyte were evaluated for equilibrium binding, association rate, and dissociation rate by using the programs supplied with the instrument (BIA evaluation 2.1; Software Handbook. 1995; Pharmacia Biosensor AB).

[3] = molecular target: T1, extracellular domain of activin …; assay: BIAcore SPR as Example 5 (method not restated); SD ±1.07 nM
Experimental: as §1

[4] = molecular target: T1, extracellular domain of activin …; assay: BIAcore SPR, biotinylated ActRIIBecd on chip; SD ±14.11 nM
Experimental: as §1

[5] = molecular target: T1, extracellular domain of activin …; assay: BIAcore SPR as Example 5 (method not restated); SD ±3.15 nM
Experimental: as §1

[6] = molecular target: T1, extracellular domain of activin …; assay: BIAcore SPR as Example 5 (method not restated); SD ±1.72 nM
Experimental: as §1

[7] = molecular target: T1, extracellular domain of activin …; assay: BIAcore SPR as Example 5 (method not restated); SD ±2.10 nM
Experimental: as §1

[8] = molecular target: T1, extracellular domain of activin …; assay: BIAcore SPR as Example 5 (method not restated); SD ±2.45 nM
Experimental: as §1

[9] = molecular target: T1, extracellular domain of activin …; assay: BIAcore SPR as Example 5 (method not restated); SD ±1.35 nM
Experimental: as §1

B1: SEQ ID NO: 292, cysteine pairs C80-C114^a, C79-C112^a, C44-C48^a (designed binder)
chain: GQAKRKGYKRLKSSCKRHPLYVDFKDVGWNDHAVAPPGYHAFYCHGECPFPLADHLNSDNHAIVQTKVNSVNSKDPKACCVPTELSAPSPLYLDENEKPVLKNYQDMVVHGCGCR
modifications: disulfides C80-C114 (intra), C79-C112 (intra), C44-C48 (intra)
Kd [1]: 6.19 nM
Kd [2]: 6.19 nM

B2: SEQ ID NO: 348, cysteine pairs C15-C15^b, C29-C62^a, C30-C64^a, C88-C92^a (designed binder)
chain: GQAKRKGYKRLKSSCKRHPLYNSKIPKACCVPTELSAISMLYLDENEKVVLKNYQDMVVEGCGCRVDFSDVGWNDWIVAPPGYHAFYCHGECPFPLADHLNSTNHAIVQTLVNSV
modifications: disulfides C15-C15 (inter), C29-C62 (intra), C30-C64 (intra), C88-C92 (intra)
notes: homodimer by intermolecular disulfide
Kd [3]: 5.1 nM
Kd [2]: 5.1 nM

VDFSDVGWNDWIVAPPGYHAFYCHGECPFPLADHLNSTNHAIVQTLVNSV [Clone No. 15 domain (ActRIIBecd-associated polypeptide)]
Kd [4]: 39.5 nM

B3: SEQ ID NO: 242, cysteine pairs C29-C30^a (designed binder)
chain: GQAKRKGYKRLKSSCKRHPLYNSKDPKACCVPTELSAPSPLYLDENEKPVLKNYQDMVVHGCGCR
modifications: disulfide 29-30
Kd [5]: 48.7 nM
Kd [2]: 48.7 nM

TYPASPKPMRWKMRSCACCAGGLRNRTGTV [Clone No. 27 domain (ActRIIBecd-associated polypeptide)]
Kd [4]: 49.3 nM

B4: SEQ ID NO: 188, cysteine pairs C44-C48^a (designed binder)
chain: AQAKHKQRKRLKSSCKRHPLYVDFSDVGWNDWIVAPPGYHAFYCHGECPFPLADHLNSTNHAIVQTLVNSV
modifications: disulfides C44-C48 (intra)
Kd [6]: 21.5 nM
Kd [2]: 21.5 nM

B5: SEQ ID NO: 236, cysteine pairs C59-C59^b, C8-C41^a, C9-C43^a (designed binder)
chain: NSKDPKACCVPTELSAPSPLYLDENEKPVLKNYQDMVVHGCGCRGQAKRKGYKRLKSSCKRHPLY
modifications: disulfide 8-41, 9-43; also: homodimer via intermolecular C59-C59 disulfide
notes: as for B2
Kd [7]: 16.2 nM
Kd [2]: 16.2 nM

B6: SEQ ID NO: 300, cysteine pairs C23-C79^a (designed binder)
chain: VDFKDVGWNDHAVAPPGYHAFYCHGECPFPLADHLNSDNHAIVQTKVNSVGQAKRKGYKRLKSSCKRHPLYNSKDPKACCVPTELSAPSPLYLDENEKPVLKNYQDMVVHGCGCR
modifications: disulfides C23-C79 (intra)
Kd [8]: 32.7 nM
Kd [2]: 32.7 nM

B7: SEQ ID NO: 300, cysteine pairs C23-C27^a, C65-C65^b, C79-C112^b, C80-C114^b (designed binder)
chain: VDFKDVGWNDHAVAPPGYHAFYCHGECPFPLADHLNSDNHAIVQTKVNSVGQAKRKGYKRLKSSCKRHPLYNSKDPKACCVPTELSAPSPLYLDENEKPVLKNYQDMVVHGCGCR
modifications: disulfides C23-C27 (intra), C65-C65 (inter), C79-C112 (inter), C80-C114 (inter)
notes: as for B2
Kd [6]: 6.44 nM
Kd [2]: 6.44 nM

B8: SEQ ID NO: 284, cysteine pairs C8-C9^a (designed binder)
chain: NSKIPKACCVPTELSAISMLYLDENEKVVLKNYQDMVVEGCGCRAQAKHKQRKRLKSSCKRHPLYVDFSDVGWNDWIVAPPGYHAFYCHGECPFPLADHLNSTNHAIVQTLVNSV
modifications: disulfides C8-C9 (intra)
Kd [5]: 31.8 nM
Kd [2]: 31.8 nM

B9: SEQ ID NO: 284, cysteine pairs C59-C59^b, C8-C43^a, C9-C41^a, C88-C92^a (designed binder)
chain: NSKIPKACCVPTELSAISMLYLDENEKVVLKNYQDMVVEGCGCRAQAKHKQRKRLKSSCKRHPLYVDFSDVGWNDWIVAPPGYHAFYCHGECPFPLADHLNSTNHAIVQTLVNSV
modifications: disulfides C59-C59 (inter), C8-C43 (intra), C9-C41 (intra), C88-C92 (intra)
notes: as for B2
Kd [9]: 6.88 nM
Kd [2]: 6.88 nM
